To fix the notation:
B1: CAMK2B (parent)
chain: YQQIKAGAYDFPSPEWDTVTPEAK
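Also: lentivirally expressed fusions sorted by FACS into six bins by GFP to DsRed ratio, PSI derived from sequencing read proportions per bin multiplied by bin number.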

Variants of B1 are the subject of the data set. Briefly: protein stability index of a GFP-peptide fusion (GPS, HEK-293T) (PSI 1-6); higher = more stable. To be noted: c terminus: a fixed tail appended.
As for YQQIKAGAYDFPSPEWDTVTPEAM [K24M], the protein stability index was found to be 3.27.

As for YQQIKAGAYDFPSPEWDTVTPEAI [K24I], the protein stability index is 3.59.

With YQQIKAGAYDFPSPEWDTVTPEAN [K24N], the protein stability index worked out at 4.11.

YQQIKAGAYDFPSPEWDTVTPEAF [K24F]: the protein stability index worked out at 2.71.

As for YQQIKAGAYDFPSPEWDTVTPEAV [K24V], the protein stability index was 3.55.

On to YQQIKAGAYDFPSPEWDTVTPEAT [K24T], for which the protein stability index was found to be 3.47.

As to YQQIKAGAYDFPSPEWDTVTPEAW [K24W], the protein stability index turned out to be 2.63.

Regarding YQQIKAGAYDFPSPEWDTVTPEAQ [K24Q], the protein stability index was determined as 3.81.

On to YQQIKAGAYDFPSPEWDTVTPEAS [K24S], for which the protein stability index came to 3.93.

In the case of YQQIKAGAYDFPSPEWDTVTPEAG [K24G], the protein stability index was determined as 3.93.

On to YQQIKAGAYDFPSPEWDTVTPEAY [K24Y], for which the protein stability index is 3.04.

Regarding YQQIKAGAYDFPSPEWDTVTPEAD [K24D], the protein stability index came to 4.11.

YQQIKAGAYDFPSPEWDTVTPEAL [K24L]: the protein stability index was 3.1.

Take YQQIKAGAYDFPSPEWDTVTPEAP [K24P]: the protein stability index was determined as 3.37.

Consider YQQIKAGAYDFPSPEWDTVTPEAH [K24H], for which the protein stability index came to 3.6.

As to YQQIKAGAYDFPSPEWDTVTPEAR [K24R], the protein stability index stood at 3.43.

Turning to YQQIKAGAYDFPSPEWDTVTPEAE [K24E], the protein stability index was 4.21.

For the origin of these results see the supplement of paper PMC10567573.
